Here are results for 8 molecules from patent publication US20240010720A1 (IOMX THERAPEUTICS, published 2024).

Usually EC50 stands for the concentration that produces a half-maximal response. A word on the Kd: it is the free concentration of one partner at which half of the binding sites on the other are occupied at equilibrium, for simple one-to-one binding. As usually defined, the EC50 (read off the curve) is the concentration that produces a half-maximal response.

Like-named read-outs stand apart in the source and are kept apart here.

Test [1] has as its target T1, IgC2 domain of human IGSF11 fused to murine IgG2a Fc-region (human; mouse, UniProt Q5DX21 137-241).
T1 construct: also called IgC2-like domain mFc fusion; not shown: murine IgG2a Fc-region
T1 sequence: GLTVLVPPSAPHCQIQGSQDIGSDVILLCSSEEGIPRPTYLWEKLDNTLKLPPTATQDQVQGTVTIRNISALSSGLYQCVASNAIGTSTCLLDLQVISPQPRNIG
The experiment in a line: ELISA, IgG. A general note: An ELISA detects its analyte on a solid surface through an enzyme-linked reagent.

Test [2] addresses T2, IGSF11 ECD fused to murine-Fc (human; mouse, UniProt Q5DX21 23-241).
T2 construct: also called Fc-fusion IGSF11 ECD; full-length ECD of IGSF11; not shown: murine Fc
T2 sequence: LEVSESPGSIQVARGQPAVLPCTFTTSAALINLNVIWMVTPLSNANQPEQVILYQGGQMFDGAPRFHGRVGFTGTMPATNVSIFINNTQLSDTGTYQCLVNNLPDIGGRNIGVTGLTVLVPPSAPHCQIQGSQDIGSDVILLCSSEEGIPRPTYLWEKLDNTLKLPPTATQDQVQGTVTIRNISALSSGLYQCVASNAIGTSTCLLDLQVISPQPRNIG
Briefly: ELISA, IgG.

In test [3] the target is T3, human IGSF11 (VSIG3) on cells (human, UniProt Q5DX21 23-431).
T3 sequence: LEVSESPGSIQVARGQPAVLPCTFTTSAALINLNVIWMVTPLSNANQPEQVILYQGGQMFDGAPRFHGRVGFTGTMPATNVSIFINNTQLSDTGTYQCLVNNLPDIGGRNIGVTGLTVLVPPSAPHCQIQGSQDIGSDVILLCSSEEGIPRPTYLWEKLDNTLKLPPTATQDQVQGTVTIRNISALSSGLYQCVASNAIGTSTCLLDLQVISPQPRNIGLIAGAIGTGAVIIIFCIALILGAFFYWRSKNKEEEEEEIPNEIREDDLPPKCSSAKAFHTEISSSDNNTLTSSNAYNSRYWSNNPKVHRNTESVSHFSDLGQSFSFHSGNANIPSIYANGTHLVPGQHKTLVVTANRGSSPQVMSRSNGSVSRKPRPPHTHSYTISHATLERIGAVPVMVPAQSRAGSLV
The experiment in a line: FACS, IgG1-format antibodies; CL-11 cells (C), a line that does not express IGSF11 (specificity control), scrambled control siRNA (SC). On the technique in general: A flow cytometer gives signals particle by particle.

Test [4] deals with T4, recombinant human IGSF11 (VSIG3) extracellular domain (ECD) (human, UniProt Q5DX21 23-241, biotinylated where captured on streptavidin).
T4 construct: also called biotinylated recombinant ECD-IGSF11; IGSF11 (ECD domain)
T4 sequence: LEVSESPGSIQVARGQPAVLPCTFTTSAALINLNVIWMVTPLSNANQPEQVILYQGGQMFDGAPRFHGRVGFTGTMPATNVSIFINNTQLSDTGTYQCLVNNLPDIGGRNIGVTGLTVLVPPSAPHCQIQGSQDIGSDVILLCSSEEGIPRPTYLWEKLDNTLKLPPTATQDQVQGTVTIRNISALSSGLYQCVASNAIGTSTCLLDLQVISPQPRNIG
The experiment in a line: BLI, IgG1.

Test [5] addresses T4, recombinant human IGSF11 (VSIG3) …. Briefly: SPR, IgG1.
Test [6] concerns the target T2, IGSF11 ECD fused to murine-Fc. The experiment in a line: ELISA, IgG. This is another data set of the same source.
Source text: Expi293 cells (ThermoFisher) were transiently transfected with DNA sequences encoding the applicable IGSF11 domain-mFc fusions according to the manufacturer's instructions, and cultured under conditions suitable to the IGSF11 domain fusion. Cell supernatants were harvested 5 days post transfection and the expressed Fc-protein purified via Protein A affinity chromatography (GE Healthcare). IGSF11 domain Fc-fusion proteins were re-buffered into PBS pH7.4. […] The surface was blocked with 2% (w/v) skim milk powder in PBST. After three wash cycles with PBST, a dilution series of IgG-format ABPs was transferred to the immobilized the Fc-fusion IGSF11 ECD or the IGSF11 domains and incubated for 1 h. After removing all unbound antibodies by 3 wash cycles with PBST, bound IgG ABPs were detected with a goat anti-human IgG antibody conjugated with horseradish peroxidase. After three wash cycles with PBST the ELISA was developed with TMB substrate.
Test [7] deals with T3, human IGSF11 (VSIG3) on cells. Briefly: FACS, HEK cells expressing IGSF11.
For test [8] the target is unchanged. Briefly: FACS, IgG1-format antibodies; M579-A2-luc cells (M) treated with scrambled control siRNA (SC).
Test [9] shares this target. Briefly: FACS, IgG1-format antibodies; M579-A2-luc cells (M) treated with IGSF11 siRNA (KD).
For test [10], the target named is T5, His-tagged extracellular domain (ECD) of human IGSF11 (VSIG3) (human, UniProt Q5DX21 23-241).
T5 construct: partly bought (SinoBiological 13094-H08H); also called IGSF11-HIS; HIS-IGSF11; not shown: HIS6 tag
T5 sequence: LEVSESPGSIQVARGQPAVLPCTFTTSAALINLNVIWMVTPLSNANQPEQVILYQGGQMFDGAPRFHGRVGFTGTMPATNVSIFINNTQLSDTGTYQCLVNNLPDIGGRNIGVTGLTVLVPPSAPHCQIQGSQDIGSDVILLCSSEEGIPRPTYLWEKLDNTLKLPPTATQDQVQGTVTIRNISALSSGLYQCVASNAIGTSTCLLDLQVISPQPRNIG
The experiment in a line: ELISA EC50 grade, IgG1.

Test [11] concerns the target T3, human IGSF11 (VSIG3) on cells. The experiment in a line: FACS, IgG1-format antibodies; DMS 273 cells (D) treated with IGSF11 siRNA (KD).
Test [12] has the same target. Briefly: FACS, IgG1-format antibodies; CL-11 cells (C), a line that does not express IGSF11 (specificity control), IGSF11 siRNA (KD).
The target is the same in test [13]. The experiment in a line: FACS, IgG1-format antibodies; DMS 273 cells (D) treated with scrambled control siRNA (SC).
For test [14], the target named is T5, His-tagged extracellular domain (ECD) …. Briefly: blocking ELISA: antibody pre-incubated with His-tagged IGSF11 ECD, complexes added to immobilised VSIR-Fc; y axis % remaining IGSF11 binding to VSIR, x axis nM IgG per legend.
Test [15] shares this target. The experiment in a line: ELISA: IgG1-format antibody titrated on coated His-tagged IGSF11; x axis nM IgG, y axis absorbance per legend.
Test [16] addresses T3, human IGSF11 (VSIG3) on cells. Briefly: FACS, DMS 273 cells.
Test [17] concerns the target T5, His-tagged extracellular domain (ECD) …. The experiment in a line: ELISA: IgG1-format antibody titrated on coated His-tagged IGSF11; x axis nM IgG, y axis absorbance per legend. This is another data set of the same source.
The target is the same in test [18]. Briefly: blocking ELISA: antibody pre-incubated with His-tagged IGSF11 ECD, complexes added to immobilised VSIR-Fc; y axis % remaining IGSF11 binding to VSIR, x axis nM IgG per legend. This is another data set of the same source.

B1: C-014 (IgG1 format) (antibody, V domains shown)
VH: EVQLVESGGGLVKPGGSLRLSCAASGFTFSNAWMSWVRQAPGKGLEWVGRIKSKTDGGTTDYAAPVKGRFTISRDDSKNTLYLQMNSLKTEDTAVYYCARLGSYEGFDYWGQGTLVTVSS
VL: SYELTQPPSVSVSPGQTASITCSGDKLGDKYASWYQQKPGQSPVLVIYQDSKRPSGIPERFSGSNSGNTATLTISGTQAEDEADYYCSTYTVTSSVVVFGGGTKLTVL
notes: wildtype human IgG1 and kappa or lambda constant regions
With B1, the EC50 in test [1] was < 1 nM; in [2], 1 to 20 nM.

B2: C-011 (IgG1 format) (antibody, V domains shown)
VH: QVQLVQSGAEVKKPGSSVKVSCKASGGTFSSYAISWVRQAPGQGLEWMGGIIPIFGTANYAQKFQGRVTITADESTSTAYMELSSLRSEDTAVYYCARHSTPSFLQYWGQGTLVTVSS
VL: SYELTQPPSVSVSPGQTASITCSGDKLGDKYASWYQQKPGQSPVLVIYQDSKRPSGIPERFSGSNSGNTATLTISGTQAEDEADYYCAVYPAHASARWVFGGGTKLTVL
notes: as for B1
In the case of B2, the EC50 in [1] and in test [2] was < 1 nM in each case.

B3: A-011 (IgG1 format) (antibody, V domains shown)
VH: QVQLVESGGGVVQPGRSLRLSCAASGFTFSSYAMHWVRQAPGKGLEWVAVISYDGSNKYYADSVKGRFTISRDNSKNTLYLQMNSLRAEDTAVYYCAEGGALNYYGMDVWGQGTTVTVSS
VL: SSELTQDPGVSVALGQTVRITCQGDSLRHFYATWYQQKPGQAPILVIYGKNNRPSGIPDRFSGSSSEDTASLTITGAQAEDEADYYCQSRDPRNNHLIFGGGTKLIVL
notes: human IgG1 format
In the case of B3, the “percentage binding (FACS heat-map)” value in test [3] came out at 2.87%; in [8] it was 2.05%; in test [9], 2.41%; in test [11], 3.4%; in [12] it was 4.86%; in test [13], 6.95%. Besides, the Kd is 10 to 20 nM in test [4] and 250 to 500 nM in test [5]. The EC50 in test [6] was < 1 nM; in [7] it was > 50 nM; in test [10], < 0.02 nM.

B4: A-012 (IgG1 format) (antibody, V domains shown)
VH: EVQLLESGGGLIQPGGSLRLSCAVSGFTVSSNYMSWVRQAPGKGLEWVSVIYSGGSTYYADSVKGRFTISRDNSKNTLYLQMNSLRAEDTAVYYCARGNPYYYGDLQVNFDYWGQGTLVTVSS
VL: QAVVTQEPSLTVSPGGTVTLTCASSTGAVTSGYYPNWFQQKPGQAPRALIYSTSNKHSWTPARFSGSLLGGKAALTLSGVQPEDEAEYYCLLYYGGAWVFGGGTKLTVL
notes: human IgG1 format
As to B4, the “percentage binding (FACS heat-map)” value in [3] is 5.11%; in test [8] it was 65.4%; in test [9], 2.35%; in test [11], 4.77%; in test [12], 3.93%; in [13], 75.8%. Further, the Kd in test [4] fell in the range of 1 to 10 nM; in test [5], 250 to 500 nM. Besides, in [14], the “IC50 (read off the curve)” value is ~2 nM. Also, the half-maximal effective concentration (EC50 (read off the curve)) in test [15] is ~0.007 nM. For the same molecule, the EC50 was in the range of 10 to 50 nM in [7], 0.02 to 0.05 nM in test [10] and 10 to 50 nM in test [16].

B5: B-006 (chain-swapped IgG1) (antibody, V domains shown)
VH: EVQLVESGGGLIQPGGSLRLSCAASGFTVSSNYMSWVRQAPGKGLEWVSVIYSGGSTYYADSVKGRFTISRDNSKNTLYLQMNSLRAEDTAVYYCARGNPYYYGDLQVNFDYWGQGTLVTVSS
VL: QAVVTQEPSLTVSPGETVTLTCASSTGAVTSGYYPNWFQQRPGQAPRALIYSTSNKDSWTPARFSGSLLGGKAALTLSGVQPEDEAEYYCLLYYGGAWVFGGGTKLTVL
notes: human IgG1 format; also called B6
In the case of B5, the “EC50 (read off the curve)” value in test [17] is ~0.02 nM. Further, the “IC50 (read off the curve)” value in [18] was ~5 nM.

B6: B-003 (chain-swapped IgG1) (antibody, V domains shown)
VH: EVQLLESGGGLIQPGGSLRLSCAVSGFTVSSNYMSWVRQAPGKGLEWVSVIYSGGSTYYADSVKGRFTISRDNSKNTLYLQMNSLRAEDTAVYYCARGNPYYYGDLQVNFDYWGQGTLVTVSS
VL: QAVVTQEPSLTVSPGETVTLTCASSTGAVTSGYYPNWFQQRPGQAPRALIYSTSNKDSWTPARFSGSLLGGKAALTLSGVQPEDEAEYYCLLYYGGAWVFGGGTKLTVL
notes: human IgG1 format; also called B3
With B6, in [14], the “IC50 (read off the curve)” value was ~2 nM. Also, in test [15], the “EC50 (read off the curve)” value was ~0.008 nM.

B7: B-007 (chain-swapped IgG1) (antibody, V domains shown)
VH: EVQLVESGGGLIQPGGSLRLSCAASGFTVSSNYMSWVRQAPGKGLEWVSVIYSGGSTYYADSVKGRFTISRDNSKNTLYLQMNSLRAEDTAVYYCARGNPYYYGDLQVNFDYWGQGTLVTVSS
VL: QAVVTQEPSLTVSPGGTVTLTCASSTGAVTSAYYPNWFQQKPGQAPRALIYSTSNKHSWTPARFSGSLLGGKAALTLSGVQPEDEADYYCLLYYGGAWVFGGGTKLTVL
notes: human IgG1 format; also called B7
On to B7, for which, in test [17], the “EC50 (read off the curve)” value was ~0.01 nM. In test [18], the “IC50 (read off the curve)” value is ~3 nM.

B8: B-005 (chain-swapped IgG1) (antibody, V domains shown)
VH: EVQLLESGGGLIQPGGSLRLSCAVSGFTVSSNYMSWVRQAPGKGLEWVSVIYSGGSTYYADSVKGRFTISRDNSKNTLYLQMNSLRAEDTAVYYCARGNPYYYGDLQVNFDYWGQGTLVTVSS
VL: QAVVTQEPSLTVSPGGTVTPTCGSSTGAVTSGNLPNWFQQKPGQAPRALIYSTSNKHSWTPARISGSLLGGKAALTLSGVQPEDEAEYYCLLYYGGAWVFGGGTKLTVL
notes: human IgG1 format; also called B5
In the case of B8, in [14], the “IC50 (read off the curve)” value is ~2 nM. Moreover, the “EC50 (read off the curve)” value in test [15] is ~0.01 nM.
